Measurements: article PMC8902617, “A lysine-rich cluster in the N-BAR domain of ARF GTPase-activating protein ASAP1 is necessary for binding and bundling actin filaments” (The Journal of Biological Chemistry, 2022)

What follows are binders tested against filamentous actin (rabbit skeletal muscle actin) (rabbit, UniProt P68135 1-377) (assay: co-sedimentation; high-speed actin cosedimentation: test protein (2 μM) with F-actin (0-25 μM) in F-actin buffer (5 mM Hepes pH 8.0, 100 mM KCl, 2 mM MgCl2, 0.2 mM CaCl2, 1 mM ATP, 1 mM DTT) for 30 min, 150,000g for 90 min at 24 °C and/or 4 °C; supernatant and pellet on SDS-PAGE, % test protein in the pellet (ACAP1 also by anti-His6 immunoblot)). Settings: both partners purified.

Binder | EC50 | binding result
ASAP1 BAR-PH (residues 1-431), His6-tagged, wild type (domain or fragment, ASAP1, BAR-PH tandem, residues 1-431; also called ASAP1-BAR-PH-His6; WT BAR-PH; source: E. coli LOBSTR (DE3) RIL or BL21 (DE3), purified (Ni-NTA or HisTrap; buffer exchange or Sephacryl S100)) not shown | ~1000 nM | 
[Q72A, Y82A, N83A] ASAP1-BAR-PH-His6 (domain or fragment, ASAP1, BAR-PH tandem, residues 1-431; Mutant of m2; the text prints [Q72A, Y82A, N83A] throughout; also called cluster 1b Ala triple mutant; source: E. coli LOBSTR (DE3) RIL or BL21 (DE3), purified (Ni-NTA or HisTrap; buffer exchange or Sephacryl S100)) not shown |  | binds
[K283A, K284A] ASAP1-BAR-PH-His6 (domain or fragment, ASAP1, BAR-PH tandem, residues 1-431; Mutant of m2; source: E. coli LOBSTR (DE3) RIL or BL21 (DE3), purified (Ni-NTA or HisTrap; buffer exchange or Sephacryl S100)) not shown |  | binds
[K283E, K284E] ASAP1-BAR-PH-His6 (domain or fragment, ASAP1, BAR-PH tandem, residues 1-431; Mutant of m2; source: E. coli LOBSTR (DE3) RIL or BL21 (DE3), purified (Ni-NTA or HisTrap; buffer exchange or Sephacryl S100)) not shown |  | binds
[K229A, K231A, K232A] ASAP1-BAR-PH-His6 (domain or fragment, ASAP1, BAR-PH tandem, residues 1-431; Mutant of m2; source: E. coli LOBSTR (DE3) RIL or BL21 (DE3), purified (Ni-NTA or HisTrap; buffer exchange or Sephacryl S100)) not shown |  | binds
[Q72E, Y82F, N83D] ASAP1-BAR-PH-His6 (domain or fragment, ASAP1, BAR-PH tandem, residues 1-431; Mutant of m2; source: E. coli LOBSTR (DE3) RIL or BL21 (DE3), purified (Ni-NTA or HisTrap; buffer exchange or Sephacryl S100)) not shown |  | binds
Q72E ASAP1-BAR-PH-His6 single mutant (domain or fragment, ASAP1, BAR-PH tandem, residues 1-431; Mutant of m2; source: E. coli LOBSTR (DE3) RIL or BL21 (DE3), purified (Ni-NTA or HisTrap; buffer exchange or Sephacryl S100)) not shown |  | binds
ASAP3 BAR-PH (aa 1-394) (domain or fragment, ASAP3, BAR-PH tandem, residues 1-394; source: E. coli LOBSTR (DE3) RIL or BL21 (DE3), purified (Ni-NTA or HisTrap; buffer exchange or Sephacryl S100)) MPEQFSVAEFLAVTAEDLSSPAGAAAFAAKMPRYRGAALAREEILEGDQAILQRIKKAVRAIHSSGLGHVENEEQYREAVESLGNSHLSQNSHELSTGFLNLAVFTREVAALFKNLIQNLNNIVSFPLDSLMKGQLRDGRQDSKKQLEKAWKDYEAKMAKLEKERDRARVTGGIPGEVAQDMQRERRIFQLHMCEYLLKAGESQMKQGPDFLQSLIKFFHAQHNFFQDGWKAAQSLFPFIEKLAASVHALHQAQEDELQKLTQLRDSLRGTLQLESREEHLSRKNSGCGYSIHQHQGNKQFGTEKVGFLYKKSDGIRRVWQKRKCGVKYGCLTISHSTINRPPVKLTLLTCQVRPNPEEKKCFDLVTHNRTYHFQAEDEHECEAWVSVLQNSKD | ~1000 nM | 
ASAP2 BAR-PH (aa 1-397) (domain or fragment, ASAP2, BAR-PH tandem, residues 1-397; source: E. coli LOBSTR (DE3) RIL or BL21 (DE3), purified (Ni-NTA or HisTrap; buffer exchange or Sephacryl S100)) not shown | ~4000 nM | 
